In patent US20110250207A1 (OREGON HEALTH AND SCIENCE UNIVERSITY, published 2011):
Each block holds one binder with its values, some of them ahead of it.

Legend:
cow fXI = target: T1, cow fXI (cattle, UniProt Q5NTB3 19-625); assay: immunoprecipitation from plasma with 14E11 beads, western blot with biotinylated 14E11
T1 construct: mature; Endogenous protein immunoprecipitated from plasma; also called cattle fXI
Protocol: Plasma was obtained from human, cattle, horse, pig, rabbit, raccoon, tiger, baboon, cat, chicken, dog African elephant and llama subjects, and serum was obtained from anteater. Plasma from a fXI-deficient human subject was used as a negative control. Plasma or serum (500 μl) was collected into sodium citrate and mixed with 500 μl Tris-HCl. […] The beads were washed once with 1 ml Tris-HCl, then eluted with 50 μl of non-reducing SDS-sample buffer.

murine factor XI = target: T2, murine factor XI (murine, UniProt Q91Y47 19-624); assay: immunoblot of recombinant proteins with 14E11 (FIG. 10A)
T2 construct: also called murine fXI (M); recombinant murine fXI

[1] = target: fXI with Lys^83 and Gln^84 replaced with alanine, P03951

binding result (cow fXI): binds
binding result (murine factor XI): binds
B1: monoclonal antibody 14E11 (antibody, V domains shown)
VH: QVQLEESGPGLVAPSQSLSITCTVSGFSLTGYGIYWVRQPPGKGLEWLGMIWGDGRTDYNSALKSRLSISKDNSKSQVFLKMNSLQTDDTARYYCARDYYGSKDYWGQGTTLTVSS
VL: DIVMTQSHKFMSTSVGDRVSITCKASQDVSTAVAWYQQKPGQSPKLLIYLTSYRNTGVPDRFTGSGSGTDFTFTISSVQAEDLAVYYCQQHYKTPYSFGGGTKLERLR
notes: also called anti-murine fXI IgG 14E11; anti-fXI IgG 14E11

B2: activated factor XII (protein)
chain: IPPWEAPKEHKYKAEEHTVVLTVTGEPCHFPFQYHRQLYHKCTHKGRPGPQPWCATTPNFDQDQRWGYCLEPKKVKDHCSKHSPCQKGGTCVNMPSGPHCLCPQHLTGNHCQKEKCFEPQLLRFFHKNEIWYRTEQAAVARCQCKGPDAHCQRLASQACRTNPCLHGGRCLEVEGHRLCHCPVGYTGAFCDVDTKASCYDGRGLSYRGLARTTLSGAPCQPWASEATYRNVTAEQARNWGLGGHAFCRNPDNDIRPWCFVLNRDRLSWEYCDLAQCQTPTQAAPPTPVSPRLHVPLMPAQPAPPKPQPTTRTPPQSQTPGALPAKREQPPSLTRNGPLSCGQRLRKSLSSMTRVVGGLVALRGAHPYIAALYWGHSFCAGSLIAPCWVLTAAHCLQDRPAPEDLTVVLGQERRNHSCEPCQTLAVRSYRLHEAFSPVSYQHDLALLRLQEDADGSCALLSPYVQPVCLPSGAARPSETTLCQVAGWGHQFEGAEEYASFLQEAQVPFLSLERCSAPDVHGSSILPGMLCAGFLEGGTDACQGDSGGPLVCEDQAAERRLTLQGIISWGSGCGDRNKPGVYTDVAYYLAWIREHTVS
rate of activation in solution relative to fXI^WT [1]: about 65% of the rate of fXI^WT
specific activity in a contact activation initiated clotting assay relative to fXI^WT [1]: 100-150% of the specific activity of fXI^WT
